Laboratory results taken from patent US20220195455.

Columns and labels:
[1] = biological target: T1, NOL3 octapeptide GNAQERPS
T1 chain: GNAQERPS

[2] = biological target: T2, PSMC1 octapeptide GQSQSGGH
T2 chain: GQSQSGGH

[3] = biological target: T3, LANCL2 octapeptide GETMSKRL
T3 chain: GETMSKRL

[4] = biological target: T4, RNF11 octapeptide GNCLKSPT
T4 chain: GNCLKSPT

[5] = biological target: T5, ARF6 octapeptide GKVLSKIF
T5 chain: GKVLSKIF

[6] = biological target: T6, RP2 octapeptide GCFFSKRR
T6 chain: GCFFSKRR

[7] = biological target: T7, SCYL3 octapeptide GSENSALK
T7 chain: GSENSALK

[8] = biological target: T8, NDUFB7 octapeptide GAHLVRRY
T8 chain: GAHLVRRY

[9] = biological target: T9, REP15 octapeptide GQKASQQL
T9 chain: GQKASQQL

[10] = biological target: T10, GNAZ octapeptide GCRQSSEE
T10 chain: GCRQSSEE

[11] = biological target: T11, DDX46 octapeptide GRESRHYR
T11 chain: GRESRHYR

[12] = biological target: T12, ARL2 octapeptide GLLTILKK
T12 chain: GLLTILKK

[13] = biological target: T13, LNP octapeptide GGLFSRWR
T13 chain: GGLFSRWR

[14] = biological target: T14, DEGS1 octapeptide GSRVSRED
T14 chain: GSRVSRED

[15] = biological target: T15, YES1 octapeptide GCIKSKEN
T15 chain: GCIKSKEN

[16] = biological target: T16, ZNRF2 octapeptide GAKQSGPA
T16 chain: GAKQSGPA

[17] = biological target: T17, MARCKS octapeptide GAQFSKTA
T17 chain: GAQFSKTA

[18] = biological target: T18, ARL6 octapeptide GLLDRLSV
T18 chain: GLLDRLSV

[19] = biological target: T19, LYN octapeptide GCIKSKGK
T19 chain: GCIKSKGK

[20] = biological target: T20, NAA40 octapeptide GRKSSKAK
T20 chain: GRKSSKAK

[21] = biological target: T21, Src8(G2A) mutant octapeptide Ala-Ser-Asn-Lys-Ser-Lys-Pro-Lys
T21 chain: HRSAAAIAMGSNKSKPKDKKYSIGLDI

[22] = biological target: T22, MARCKSL1 octapeptide GSQSSKAP
T22 chain: GSQSSKAP

[23] = biological target: T23, FYN octapeptide GCVQCKDK
T23 chain: GCVQCKDK

[24] = biological target: T24, NDUFAF4 octapeptide GALVIRGI
T24 chain: GALVIRGI

[25] = biological target: T25, FRS2 octapeptide GSCCSCPD
T25 chain: GSCCSCPD

B1: N-myristoyltransferase 1, full length (protein)
chain: MADESETAVKPPAPPLPQMMEGNGNGHEHCSDCENEEDNSYNRGGLSPANDTGAKKKKKKQKKKKEKGSETDSAQDQPVKMNSLPAERIQEIQKAIELFSVGQGPAKTMEEASKRSYQFWDTQPVPKLGEVVNTHGPVEPDKDNIRQEPYTLPQGFTWDALDLGDRGVLKELYTLLNENYVEDDDNMFRFDYSPEFLLWALRPPGWLPQWHCGVRVVSSRKLVGFISAIPANIHIYDTEKKMVEINFLCVHKKLRSKRVAPVLIREITRRVHLEGIFQAVYTAGVVLPKPVGTCRYWHRSLNPRKLIEVKFSHLSRNMTMQRTMKLYRLPETPKTAGLRPMETKDIPVVHQLLTRYLKQFHLTPVMSQEEVEHWFYPQENIIDTFVVENANGEVTDFLSFYTLPSTIMNHPTHKSLKAAYSFYNVHTQTPLLDLMSDALVLAKMKGFDVFNALDLMENKTFLEKLKFGIGDGNLQYYLYNWKCPSMGAEKVGLVLQ
B1 was tested, and the Km [1] was 1.4 µM, the Vmax [1] was 2 µM/min and the Km [2] was 40 µM. It also gave a Vmax [2] of 9.6 µM/min, a Km [3] of 13 µM and a Vmax [3] of 5.3 µM/min. For the same protein, the Km [4] was 16.7 µM, the Vmax [4] was 61.1 µM/min and the Km [5] was 4.4 µM. It also gave a Vmax [5] of 13.6 µM/min, a Km [6] of 13.6 µM and a Vmax [6] of 60.8 µM/min. It also gave a Km [7] of 0.8 µM, a Vmax [7] of 1.7 µM/min and a Km [8] of 16.4 µM. It also gave a Vmax [8] of 2.8 µM/min, a Km [9] of 15.7 µM and a Vmax [9] of 3.4 µM/min. The Km [10] was 15.7 µM, the Vmax [10] was 64.4 µM/min and the Km [11] was under 0.1 µM. For the same protein, the Vmax [11] was 2 µM/min, the Km [12] was 0.4 µM and the Vmax [12] was 1.2 µM/min. The Km [13] was 10.3 µM, the Vmax [13] was 21.9 µM/min and the Km [14] was 79.2 µM. The Vmax [14] was 12.9 µM/min, the Km [15] was 14.4 µM and the Vmax [15] was 61 µM/min. For the same protein, the Km [16] was 2 µM, the Vmax [16] was 1.6 µM/min and the Km [17] was 38.4 µM. The Vmax [17] was 6.4 µM/min, the Km [18] was under 0.1 µM and the Vmax [18] was 1.8 µM/min. The Km [19] was 22.5 µM, the Vmax [19] was 64.7 µM/min and the Km [20] was 1.2 µM. It also gave a Vmax [20] of 1.8 µM/min, a Km [21] of under 0.1 µM and a Vmax [21] of 1 µM/min. For the same protein, the Km [22] was 11.7 µM, the Vmax [22] was 6.6 µM/min and the Km [23] was 5.2 µM. It also gave a Vmax [23] of 54.9 µM/min, a Km [24] of 0.5 µM and a Vmax [24] of 1.2 µM/min. The Km [25] was 28.2 µM and the Vmax [25] was 54.7 µM/min.
